We go through seven sequences from the supplement of paper PMC12455559.

Data set [1] is described as follows: PET hydrolysis, aromatic products released after 48 h (umol product/mg enzyme); higher = more PET depolymerization activity. The settings on record: substrate: cryPow. In outline:
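Hydrolysis activity toward PET is reported as supernatant aromatic product per mg enzyme. To measure it, 5 μg (50 μL) of tagless enzyme was incubated with 3.5 mg amorphous PET film or crystalline PET powder in 450 μL buffer for 48 h at 40 or 60 °C in sealed, unshaken plates. The product was quantified by absorbance at 260 and 280 nm relative to buffer blanks.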

Data set [2] can be described thus: melting temperature (DSF); higher = more thermostable. In outline: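 Enzymes made in E. coli C41(DE3) were nickel-bead purified and cut free with SUMO protease before testing. Differential scanning fluorimetry gave each melting temperature. For this, 5 μL 5X Sypro Orange was added to 45 μL enzyme (0 to 0.3 mg/mL) in sealed PCR plates, and a Bio-Rad CFX96 read fluorescence from 25 °C over 250 cycles of 0.3 °C each, ramping at 0.3 °C/s.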

Data set [3] can be described thus: purified protein yield per well (BCA); higher = higher soluble expression. In outline:
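The measured quantity is purified protein yield per well, determined with the Pierce Rapid Gold BCA kit. Anything below 25 ug (0.1 mg/mL) lies under the detection threshold. Enzymes were expressed in E. coli C41(DE3) in 2 mL autoinduction cultures with 100 µg/mL kanamycin at 37 °C for 2 h, then 18 °C for 40 h, and purified on an OT-2 robot using Ni-charged magnetic beads and SUMO protease release.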

Take “MPPPPPPPPPVQTVTVEPGYGFGGGTIYYPQESTGRLPVVAAVPGFTETQEAVAWYGPLLARRGNIVITIDTISPTNAPKTRADQALAAIDYVVTQSAVSDIADASRTAVMGHSMGGGASLFAALKRPTLKAIVPLAPWARTTDFSGVAVPTLIVGCENDGIAAVGTYAEPFYESIPATTPKAYLEMAGGNHYCTNSEDPVIAGYVSAWTDRFLKGDTTASSRLCPPSPVGPISEYRSNCPY [TEP189]”: the PET hydrolysis in data set [1] (40 °C, pH 4.5) is under 3; in data set [1] (40 °C, pH 5.5), 8; in data set [1] (40 °C, pH 6.5), 56; in data set [1] (40 °C, pH 7.5), 62; in data set [1] (60 °C, pH 4.5) it was under 3; in data set [1] (60 °C, pH 5.5), under 3. In addition, the PET hydrolysis is 23 in data set [1] (60 °C, pH 6.5) and 22 in data set [1] (60 °C, pH 7.5). Further, in data set [2], the melting temperature stood at 67 C. Moreover, the “purified protein yield per well” value in data set [3] worked out at 153 µg.

For “ADNPYQRGPDPTLASVAASRGTFATAQVNVPGGNGFASGVIYYPTDTTQGTFGAVAIVPGYSALFANEEAWMGPWLASFGFVVIGIETNSRTDSADARGTQLLAALDYLTQRSPVRDRVDPNRLSVVGHSAGGAGVLSAVVRRPSLKAAIGLAPGSPVGNYDLSTAKVPTMFISGQRDTTVTQSYLNGLYSTIPAALPSAWVEIAGVDHLFATRANNTEMRVLIPWLKIWLDNDTRYPQFLCPLMDSTNISMYRNKCPYVPPGGGPSPSPSATPSPSVTPSPSPSPSPSPSPSPSPTPTPGACTATYRTVNSWGGGYQGEVTVKAGASAVNGWTVRWTLNAGQTVSQVWNGTLSTSGSSVTVKNASYNGSLPPAGTTVFGFLANGTPATPALTCASP [ESM009]”, the PET hydrolysis was under 3 in data set [1] (40 °C, pH 4.5); under 3 in data set [1] (40 °C, pH 5.5); under 3 in data set [1] (40 °C, pH 6.5); under 3 in data set [1] (40 °C, pH 7.5); under 3 in data set [1] (60 °C, pH 4.5); under 3 in data set [1] (60 °C, pH 5.5). Further, the PET hydrolysis in data set [1] (60 °C, pH 6.5) is under 3; in data set [1] (60 °C, pH 7.5), under 3. This sequence also came in with a melting temperature in data set [2] of 58.6 C. For the same sequence, the “purified protein yield per well” value in data set [3] amounted to 358 µg.

As for “MAQTSSCSLMGDVDGSGAIDIVDALLVAQAYVGLNPANYNDACADVDCSDSANIVDALLVAQLYVGLISSFPCEVTPEPTGVSTPTPGGAISIACGSSSAVGSFQADEYYSGGSTYNNSNTVDVSLITDNPPPAALFNNERYGEMSYTIPGFTAGGTYAVTLYFAETYLTSSGSRQFNVSINGTAVLSSFDIYAAAGGQNRAVARAFTTTADSGGQIVIQFTSVTENPKINGISIQAGTAPTPGPTATPGPTSENPYERGPDPSLESVAASRGTFATAELTLSPGNGFGGGFIYYPTDTSLGTWAAVAICPGYTAKFANEETWMGHWLASFGFVVIGIETNTTTDSVDARGTQLLAALDYLTQQSAVRDRVDPDRLMVMGHSAGGGGAFTAAVQRSSLKTVVGLAPASASNMGSLRMPVMIISGQYDDVITPSYINGIWTSLSPTIQRAWIELANNDHLSFTRSNSTEMRVLIPWMKIFLDNDTRYTQFLCPLADSSGISKYENSCPLVP [TEP011]”, the PET hydrolysis in data set [1] (40 °C, pH 4.5) was under 3; in data set [1] (40 °C, pH 5.5), under 3; in data set [1] (40 °C, pH 6.5), under 3; in data set [1] (40 °C, pH 7.5), under 3. For the same sequence, the melting temperature in data set [2] was determined as 64.6 C. The “purified protein yield per well” value in data set [3] is 30.6 µg.

As for “ASYQRGPDPTVQSVAANRGTFPTAEITVPRGYGFNGGKIYYPTDTSQGTWGAIAAVPGYTASWAAEGAWMGPWLASFGFVVIGIDTNSPTDFDTARGTQLLAALDYLTGQSAVRDRVDPNRLAVLGHSMGGGGAISAAMRRPTLKAAIPLAPASFSQNLSTVRVPTLIMGARDDGTVTPSSINSLWATKPATTKGAYVELTGGGHGFPTWGNSQVTRREIPWLKIFLDNDNRYTQFLCPSLADNTGVSRYLSECPYGSTGQPTSPPSTPPPTSGGPVRAVGAGKCLDVPNASQTNDTQLAIWDCNGGTNQRWTRTAGKQLTVYGNKCLDAAGQGTTNGTRVIIWDCTGTANQQWNVNANGTITGVQSGLCLDVSGGSTANGALTQLWACNNGSNQQWRLG [ESM070]”, the PET hydrolysis was under 3 in data set [1] (40 °C, pH 4.5); 4 in data set [1] (40 °C, pH 5.5); 10 in data set [1] (40 °C, pH 6.5); 17 in data set [1] (40 °C, pH 7.5); under 3 in data set [1] (60 °C, pH 4.5); under 3 in data set [1] (60 °C, pH 5.5). Besides, the PET hydrolysis was under 3 in data set [1] (60 °C, pH 6.5) and under 3 in data set [1] (60 °C, pH 7.5). Moreover, the melting temperature in data set [2] was found to be 64.6 C. Moreover, the “purified protein yield per well” value in data set [3] turned out to be 254 µg.

For the sequence “AADNPYQRGPDPTPASVSANRGTFATTQVAVAAGNGFGGGVIYYPTDTSQGQFGAIAVVPGYTATWAAEGAWMGHWLASFGFVVIGIDTNNRNDWDTARGTQLLAALDYLTQRSSVRDRVDATRTAVMGHSMGGGGAASASLQRPSLKASIGLAPASFSQNLTTTRVPTMLLSGQNDTTITPASVVNLYNGIPASVEKAYLELSGAGHGFPTSNNSTMMRNVIPWFKVFVDSDTRYTQFLCPLANWSGIRTYQSTCPLVPSTPPTSTTTSTTTSTTTSTTTTTTPQPVGACNATYRTTNSWPGGYQGEVTVTAGESGVNGWTTRWTLGSGQTVTQVWNGTLTVDGSTASVRNAAYNGSLPAGGSAAFGFIGGGTPPTSLTCTSP [ESM023]”, the PET hydrolysis is under 3 in data set [1] (40 °C, pH 4.5); under 3 in data set [1] (40 °C, pH 5.5); under 3 in data set [1] (40 °C, pH 6.5); 5 in data set [1] (40 °C, pH 7.5); under 3 in data set [1] (60 °C, pH 4.5); under 3 in data set [1] (60 °C, pH 5.5). The PET hydrolysis in data set [1] (60 °C, pH 6.5) is under 3; in data set [1] (60 °C, pH 7.5), under 3. Moreover, the melting temperature in data set [2] was 55 C. The “purified protein yield per well” value in data set [3] is 221 µg.

In the case of “ADNPYQRGPDPTRTSVTAVNGPFANTSVSVPTGYGFNGGRIYYPTDTSQGTFGAIAISPGYTALFSAELAWMGPWLASHGFVVIGIETNSRNDFDTARGTQLLAALDYLTQQSPVRDRVDPTRLAVAGHSMGGGGALSAATRRSSLKAAVGIAPYSPSSNLANDRVPTMVFAGQADTVVTPSYATGLYNSLPATTESAYLEVAGADHGFMVGRSNPVLVRTMLPFVKMFVDNDARYSQFLCPLLDSSGVVTYRSTCPLLPSTPTTPTATPTNTPTPTASPTVPPTSASQIVGTQSGRCVDVPNASRTNGTRVTLYDCNRQINQTWTYTANKQLQVYGTMCLDAAGTGNGAAVQIYNCHGQTNQQWNVNSNGTISSVQSGRCLDVWSTSNGAQIQLYDCHGQPNQQFRLVSLA [ESM135]”, the PET hydrolysis in data set [1] (40 °C, pH 4.5) is 6; in data set [1] (40 °C, pH 5.5) it was 15; in data set [1] (40 °C, pH 6.5), 14; in data set [1] (40 °C, pH 7.5) it was 5; in data set [1] (60 °C, pH 4.5) it was under 3; in data set [1] (60 °C, pH 5.5), under 3. In addition, the PET hydrolysis is under 3 in data set [1] (60 °C, pH 6.5) and under 3 in data set [1] (60 °C, pH 7.5). Besides, the melting temperature in data set [2] is 61.3 C. The “purified protein yield per well” value in data set [3] was 109 µg.

Regarding “ADNPYQRGPDPTRTSVTAVNGPFANTSVSVPTGYGFNGGRIYYPTDTSQGTFGAIAISPGYTALFSAELAWMGPWLASHGFVVIGIETNSRNDFDTARGTQLLAALDYLTQQSPVRDRVDPNRLAVAGHSMGGGGALSAAIRRPSLKAVVGIAPYSPSSNLANDRVPTMIFSGQADTVVTPSYATGLYNSLPATTESVYLEVAGADHGFMVGRSNPVMVRTMLPFVKMFIDDDARYSQFLCPLLDNSGVVTYRSTCPLLPTTPTTPPTGTPTPTPTPTQTTPPPGSASQIVGTQSGRCVDVPNASTTNGTRVQLYDCNRQTNQAWTYTSTKQLQVYGTMCLDAAGTGNGAAVQIYSCHSQTNQQWNVNSNGTISSVQSGRCLDAWSTANGAQIQLYDCHGQTNQQFRLAALA [ESM095]”, the PET hydrolysis was 11 in data set [1] (40 °C, pH 4.5); 21 in data set [1] (40 °C, pH 5.5); 22 in data set [1] (40 °C, pH 6.5); 10 in data set [1] (40 °C, pH 7.5); under 3 in data set [1] (60 °C, pH 4.5); under 3 in data set [1] (60 °C, pH 5.5). Besides, the PET hydrolysis is under 3 in data set [1] (60 °C, pH 6.5) and under 3 in data set [1] (60 °C, pH 7.5). The same sequence came in with a melting temperature in data set [2] of 63.7 C. For the same sequence, the “purified protein yield per well” value in data set [3] was found to be 147 µg.
